From patent publication US12583886 (KING ABDULLAH UNIVERSITY OF SCIENCE AND TECHNOLOGY, dated 2026)

Key:
[1] = target: human PCNA N107C, N-terminally Histidine-tagged, coupled to SulfoLink agarose resin (PCNA-Agarose column) (human) (UniProt P12004); assay: salt-gradient elution from PCNA-Agarose column (N107C PCNA on SulfoLink resin), EMG fit of UV 280 nm peak
[2] = target: human PCNA N107C, N-terminally Histidine-tagged, coupled to SulfoLink agarose resin (PCNA-Agarose column) (human) (UniProt P12004); assay: salt-gradient elution from PCNA-Agarose column, empirical cumulative integration
[3] = target: T1, human PCNA N107C, N-terminally Histidine-tagged, coupled to SulfoLink agarose resin (PCNA-Agarose column) (human, UniProt P12004 1-261, Cys 107 joined by a thioether bond to the iodoacetyl group of SulfoLink agarose resin); assay: salt-gradient elution from PCNA-Agarose column (N107C PCNA on SulfoLink resin), EMG fit of UV 280 nm peak
T1 construct: Homo-trimeric ring; Immobilised bait on the column; also called N107C-PCNA; Proliferating Cell Nuclear Antigen

[4] = target: T1, human PCNA N107C, N-terminally …; assay: salt-gradient elution from PCNA-Agarose column, empirical cumulative integration
Excerpt: Two different methods were used for defining and determining this salt concentration. One method relies on empirical calculations while the second method employs a specific model for the elution peak shape. For both methods, protein elution from the column was monitored by the value recorded by the UV detector at 280 nm. The UV absorption was then plotted on the y-axis versus the NaCl concentration (here denoted as 'c') on the x-axis in the gradient region of each chromatogram. Since linear gradients were used for elution, the conversion is readily feasible from the volume in ml to salt concentration in mM on the x-axis, resulting in direct rescaling of the axis.
A binding assay based on chromatography is presented, where the PCNA-Agarose column is used as an analytical tool. The protein of interest was loaded onto the PCNA-Agarose column at low salt concentration followed by extensive washing with a buffer of an equal ionic strength to remove the non-specifically bound proteins. A salt gradient was applied to the column to elute the bound protein of interest. This gradient region of elution in the chromatogram was used for the subsequent analysis. […] The resulting data points, i.e., UV units versus salt concentrations, were analyzed either by the empirical method of cumulative integration or by fitting the peak profile with an EMG model. […]

T1 sequence (P12004 other isoform, or with tags, fused parts or gaps N107C N107C limits assumed): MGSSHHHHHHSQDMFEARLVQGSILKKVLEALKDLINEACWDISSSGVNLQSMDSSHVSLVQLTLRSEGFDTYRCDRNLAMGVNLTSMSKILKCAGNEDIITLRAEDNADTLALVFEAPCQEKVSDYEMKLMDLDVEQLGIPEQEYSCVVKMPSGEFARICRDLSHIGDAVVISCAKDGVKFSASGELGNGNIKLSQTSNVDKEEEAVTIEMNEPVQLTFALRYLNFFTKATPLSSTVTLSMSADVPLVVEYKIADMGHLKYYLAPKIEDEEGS
human PCNA N107C, N-terminally Histidine-tagged, coupled to SulfoLink agarose resin (PCNA-Agarose column) (human), sequence (P12004 other isoform, or with tags, fused parts or gaps N107C N107C limits assumed): as above

Row | Elution Peak (mM NaCl, mode of EMG fit) [1] | median NaCl concentration of elution (50% cumulative elution) [2] | Elution Peak (mM NaCl, mode of EMG fit) [3] | median NaCl concentration of elution (50% cumulative elution) [4] | Molecule
1 | 534 mM | > 400 mM | – | – | human DNA polymerase delta (Polδ), four-subunit complex p125/p50/p68/p12 expressed in Sf9 insect cells (from UniProt P28340 1-1107; P49005 1-469; Q15054 1-466; Q9HCU8 1-107) (enzyme)
2 | – | – | 513 mM | > 400 mM | human DNA polymerase eta (Polη), native after SUMO protease digestion (enzyme, UniProt Q9Y253 1-713, looked up, mature; also called Poln) MATGQDRVVALVDMDCFFVQVEQRQNPHLRNKPCAVVQYKSWKGGGIIAVSYEARAFGVTRSMWADDAKKLCPDLLLAQVRESRGKANLTKYREASVEVMEIMSRFAVIERASIDEAYVDLTSAVQERLQKLQGQPISADLLPSTYIEGLPQGPTTAEETVQKEGMRKQGLFQWLDSLQIDNLTSPDLQLTVGAVIVEEMRAAIERETGFQCSAGISHNKVLAKLACGLNKPNRQTLVSHGSVPQLFSQMPIRKIRSLGGKLGASVIEILGIEYMGELTQFTESQLQSHFGEKNGSWLYAMCRGIEHDPVKPRQLPKTIGCSKNFPGKTALATREQVQWWLLQLAQELEERLTKDRNDNDRVATQLVVSIRVQGDKRLSSLRRCCALTRYDAHKMSHDAFTVIKNCNTSGIQTEWSPPLTMLFLCATKFSASAPSSSTDITSFLSSDPSSLPKVPVTSSEAKTQGSGPAVTATKKATTSLESFFQKAAERQKVKEASLSSLTAPTQAPMSNSPSKPSLPFQTSQSTGTEPFFKQKSLLLKQKQLNNSSVSSPQQNPWSNCKALPNSLPTEYPGCVPVCEGVSKLEESSKATPAEMDLAHNSQSMHASSASKSVLEVTQKATPNPSLLAAEDQVPCEKCGSLVPVWDMPEHMDYHFALELQKSFLQPHSSNPQVVSAVSHQGKRNPKSPLACTNKRPRPEGMQTLESFFKPLTH
3 | – | – | 340 mM | – | human p15, N-terminally Histidine- and SUMO-tagged (other, UniProt Q15004 1-111, looked up, mature; The PCNA-Agarose column was the first step, so the His- and SUMO-tags were still on the protein; not shown: N-terminal Histidine tag and SUMO tag from the pESUMO pro vector) MVRTKADSVPGTYRKVVAARAPRKVLGSSTSATNSTSVSSRKAENKYAGGNPVCVRPTPKWQKGIGEFFRLSPKDSEKENQIPEEAGSSGLGKAKRKACPLQPDHTNDEKE

The remaining lines, values behind:

Row | Molecule | Elution Peak (mM NaCl, mode of EMG fit) [1] | median NaCl concentration of elution (50% cumulative elution) [2] | Elution Peak (mM NaCl, mode of EMG fit) [3] | median NaCl concentration of elution (50% cumulative elution) [4]
4 | human DNA polymerase iota (Polι), N-terminally Histidine- and SUMO-tagged (enzyme, UniProt Q9UNA4 1-740, looked up, mature; The SUMO tag was removed only after the PCNA-Agarose step; also called Polt; Poli; not shown: N-terminal Histidine tag and SUMO tag from the pESUMO pro vector) MEKLGVEPEEEGGGDDDEEDAEAWAMELADVGAAASSQGVHDQVLPTPNASSRVIVHVDLDCFYAQVEMISNPELKDKPLGVQQKYLVVTCNYEARKLGVKKLMNVRDAKEKCPQLVLVNGEDLTRYREMSYKVTELLEEFSPVVERLGFDENFVDLTEMVEKRLQQLQSDELSAVTVSGHVYNNQSINLLDVLHIRLLVGSQIAAEMREAMYNQLGLTGCAGVASNKLLAKLVSGVFKPNQQTVLLPESCQHLIHSLNHIKEIPGIGYKTAKCLEALGINSVRDLQTFSPKILEKELGISVAQRIQKLSFGEDNSPVILSGPPQSFSEEDSFKKCSSEVEAKNKIEELLASLLNRVCQDGRKPHTVRLIIRRYSSEKHYGRESRQCPIPSHVIQKLGTGNYDVMTPMVDILMKLFRNMVNVKMPFHLTLLSVCFCNLKALNTAKKGLIDYYLMPSLSTTSRSGKHSFKMKDTHMEDFPKDKETNRDFLPSGRIESTRTRESPLDTTNFSKEKDINEFPLCSLPEGVDQEVFKQLPVDIQEEILSGKSREKFQGKGSVSCPLHASRGVLSFFSKKQMQDIPINPRDHLSSSKQVSSVSPCEPGTSGFNSSSSSYMSSQKDYSYYLDNRLKDERISQGPKEPQGFHFTNSNPAVSAFHSFPNLQSEQLFSRNHTTDSHKQTVATDSHEGLTENREPDSVDEKITFPSDIDPQVFYELPEAVQKELLAEWKRAGSDFHIGHK | – | – | 359 mM | –
5 | human DNA polymerase kappa (Polκ), N-terminally Histidine- and SUMO-tagged (enzyme, UniProt Q9UBT6 1-870, looked up, mature; The SUMO tag was removed only after the PCNA-Agarose step; also called Polk; not shown: N-terminal Histidine tag and SUMO tag from the pESUMO pro vector) MDSTKEKCDSYKDDLLLRMGLNDNKAGMEGLDKEKINKIIMEATKGSRFYGNELKKEKQVNQRIENMMQQKAQITSQQLRKAQLQVDRFAMELEQSRNLSNTIVHIDMDAFYAAVEMRDNPELKDKPIAVGSMSMLSTSNYHARRFGVRAAMPGFIAKRLCPQLIIVPPNFDKYRAVSKEVKEILADYDPNFMAMSLDEAYLNITKHLEERQNWPEDKRRYFIKMGSSVENDNPGKEVNKLSEHERSISPLLFEESPSDVQPPGDPFQVNFEEQNNPQILQNSVVFGTSAQEVVKEIRFRIEQKTTLTASAGIAPNTMLAKVCSDKNKPNGQYQILPNRQAVMDFIKDLPIRKVSGIGKVTEKMLKALGIITCTELYQQRALLSLLFSETSWHYFLHISLGLGSTHLTRDGERKSMSVERTFSEINKAEEQYSLCQELCSELAQDLQKERLKGRTVTIKLKNVNFEVKTRASTVSSVVSTAEEIFAIAKELLKTEIDADFPHPLRLRLMGVRISSFPNEEDRKHQQRSIIGFLQAGNQALSATECTLEKTDKDKFVKPLEMSHKKSFFDKKRSERKWSHQDTFKCEAVNKQSFQTSQPFQVLKKKMNENLEISENSDDCQILTCPVCFRAQGCISLEALNKHVDECLDGPSISENFKMFSCSHVSATKVNKKENVPASSLCEKQDYEAHPKIKEISSVDCIALVDTIDNSSKAESIDALSNKHSKEECSSLPSKSFNIEHCHQNSSSTVSLENEDVGSFRQEYRQPYLCEVKTGQALVCPVCNVEQKTSDLTLFNVHVDVCLNKSFIQELRKDKFNPVNQPKESSRSTGSSSGVQKAVTRTKRPGLMTKYSTSKKIKPNNPKHTLDIFFK | – | – | 547 mM | > 400 mM
